Assay results from PMC10215022.
pKd: −log10 of the molar value.

Columns and labels:
[1] = target: SARS-CoV-2 Omicron (B.1.1.529) spike protein RBD, His-tagged (SARS-CoV-2 Omicron (B.1.1.529)) (UniProt P0DTC2); assay: SPR
[2] = target: SARS-CoV-2 Delta (B.1.617.2) spike protein RBD, His-tagged (SARS-CoV-2 Delta (B.1.617.2)) (UniProt P0DTC2); assay: SPR

Work on “decavalent IgM ACE2 decoy (from UniProt Q9BYF1;P01591) (Fc fusion)” yielded a pKd [1] of 8.62, a koff [1] of 0.00036 s⁻¹ and a kon [1] of 150000 M⁻¹ s⁻¹. The pKd [2] was 9.31, the koff [2] was 0.00013 s⁻¹ and the kon [2] was 260000 M⁻¹ s⁻¹.
